Assay results from paper PMC12416549 (2024).
Residue numbers refer to the chain shown, from its start. Numbers in names are those of the source.

Target: T1, TNFR1 (Homo sapiens, UniProt P19438)
T1 chain: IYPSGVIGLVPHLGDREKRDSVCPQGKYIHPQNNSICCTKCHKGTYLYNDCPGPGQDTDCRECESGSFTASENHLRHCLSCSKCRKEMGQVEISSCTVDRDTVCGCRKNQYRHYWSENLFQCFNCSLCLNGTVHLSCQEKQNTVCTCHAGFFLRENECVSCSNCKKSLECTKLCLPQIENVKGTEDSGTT
Assay: yeast display SC50

B1: M1K (designed binder)
chain: KTLQELLREEALRRAEAEAFRYALELLAEKFPEQKEYLLDLAEEIESQIRSLSGVDVEDVRKFLDKEWAWVKELLAEHPAELAEVEAARAARLAELRAEVEAKVAA
With B1 the “apparent Kd (screen)” value was 0.49 nM.

B2: L24I (designed binder)
chain: B1 chain with K1M, L24I
With B2 the “apparent Kd (screen)” value was 0.653 nM.

B3: A42P (designed binder)
chain: B1 chain with K1M, A42P
In the case of B3, the “apparent Kd (screen)” value is reported as 0.49 nM.

B4: P79A (designed binder)
chain: B1 chain with K1M, P79A
With B4 the “apparent Kd (screen)” value was 0.718 nM.

B5: A28C (designed binder)
chain: B1 chain with K1M, A28C
B5 was tested, and the “apparent Kd (screen)” value was 2.25 nM.

B6: F31G (designed binder)
chain: B1 chain with K1M, F31G
With B6 the “apparent Kd (screen)” value was 0.869 nM.

B7: E101Y (designed binder)
chain: B1 chain with K1M, E101Y
For B7, the “apparent Kd (screen)” value was 0.446 nM.

B8: V57F (designed binder)
chain: B1 chain with K1M, V57F
In the case of B8, the “apparent Kd (screen)” value is reported as 0.718 nM.

B9: A17W (designed binder)
chain: B1 chain with K1M, A17W
For B9, the “apparent Kd (screen)” value was 0.539 nM.

B10: M1E (designed binder)
chain: B1 chain with K1E
For B10, the “apparent Kd (screen)” value was 0.593 nM.

B11: F63Y (designed binder)
chain: B1 chain with K1M, F63Y
With B11 the “apparent Kd (screen)” value was 12.5 nM.

B12: R14N (designed binder)
chain: B1 chain with K1M, R14N
With B12 the “apparent Kd (screen)” value was 0.593 nM.

B13: E5C (designed binder)
chain: B1 chain with K1M, E5C
B13 was tested, and the “apparent Kd (screen)” value was 0.79 nM.

B14: A23S (designed binder)
chain: B1 chain with K1M, A23S
With B14 the “apparent Kd (screen)” value was 0.446 nM.

B15: E99Q (designed binder)
chain: B1 chain with K1M, E99Q
With B15 the “apparent Kd (screen)” value was 0.539 nM.

B16: E99M (designed binder)
chain: B1 chain with K1M, E99M
With B16 the “apparent Kd (screen)” value was 0.956 nM.

B17: V85E (designed binder)
chain: B1 chain with K1M, V85E
B17 was tested, and the “apparent Kd (screen)” value was 1.05 nM.

B18: E67T (designed binder)
chain: B1 chain with K1M, E67T
With B18 the “apparent Kd (screen)” value was 1.86 nM.

B19: K103A (designed binder)
chain: B1 chain with K1M, K103A
In the case of B19, the “apparent Kd (screen)” value is reported as 0.718 nM.

B20: P32M (designed binder)
chain: B1 chain with K1M, P32M
With B20 the “apparent Kd (screen)” value was 1.4 nM.

B21: A69N (designed binder)
chain: B1 chain with K1M, A69N
In the case of B21, the “apparent Kd (screen)” value is reported as 0.653 nM.

B22: A28S (designed binder)
chain: B1 chain with K1M, A28S
In the case of B22, the “apparent Kd (screen)” value is reported as 0.79 nM.

B23: R21S (designed binder)
chain: B1 chain with K1M, R21S
In the case of B23, the “apparent Kd (screen)” value is reported as 0.539 nM.

B24: R92Q (designed binder)
chain: B1 chain with K1M, R92Q
With B24 the “apparent Kd (screen)” value was 0.304 nM.

B25: R97M (designed binder)
chain: B1 chain with K1M, R97M
In the case of B25, the “apparent Kd (screen)” value is reported as 0.539 nM.

B26: K66I (designed binder)
chain: B1 chain with K1M, K66I
With B26 the “apparent Kd (screen)” value was 0.869 nM.

B27: Y37D (designed binder)
chain: B1 chain with K1M, Y37D
In the case of B27, the “apparent Kd (screen)” value is reported as 16.7 nM.

B28: Q34P (designed binder)
chain: B1 chain with K1M, Q34P
B28 was tested, and the “apparent Kd (screen)” value was 0.49 nM.

B29: A23E (designed binder)
chain: B1 chain with K1M, A23E
In the case of B29, the “apparent Kd (screen)” value is reported as 0.49 nM.

B30: E73I (designed binder)
chain: B1 chain with K1M, E73I
B30 was tested, and the “apparent Kd (screen)” value was 0.718 nM.

B31: K62S (designed binder)
chain: B1 chain with K1M, K62S
In the case of B31, the “apparent Kd (screen)” value is reported as 0.539 nM.

B32: A88Q (designed binder)
chain: B1 chain with K1M, A88Q
For B32, the “apparent Kd (screen)” value was 0.49 nM.

B33: H78A (designed binder)
chain: B1 chain with K1M, H78A
In the case of B33, the “apparent Kd (screen)” value is reported as 0.539 nM.

B34: E29S (designed binder)
chain: B1 chain with K1M, E29S
With B34 the “apparent Kd (screen)” value was 0.539 nM.

B35: D59R (designed binder)
chain: B1 chain with K1M, D59R
With B35 the “apparent Kd (screen)” value was 0.539 nM.

B36: W68F (designed binder)
chain: B1 chain with K1M, W68F
For B36, the “apparent Kd (screen)” value was 0.539 nM.

B37: R13Y (designed binder)
chain: B1 chain with K1M, R13Y
For B37, the “apparent Kd (screen)” value was 0.335 nM.

B38: L74T (designed binder)
chain: B1 chain with K1M, L74T
In the case of B38, the “apparent Kd (screen)” value is reported as 2.48 nM.

B39: M1F (designed binder)
chain: B1 chain with K1F
B39 was tested, and the “apparent Kd (screen)” value was 0.593 nM.

B40: L41V (designed binder)
chain: B1 chain with K1M, L41V
With B40 the “apparent Kd (screen)” value was 0.869 nM.

B41: A69C (designed binder)
chain: B1 chain with K1M, A69C
With B41 the “apparent Kd (screen)” value was 0.405 nM.

B42: A105I (designed binder)
chain: B1 chain with K1M, A105I
B42 was tested, and the “apparent Kd (screen)” value was 0.869 nM.

B43: V60G (designed binder)
chain: B1 chain with K1M, V60G
B43 was tested, and the “apparent Kd (screen)” value was 1.54 nM.

B44: L39M (designed binder)
chain: B1 chain with K1M, L39M
B44 was tested, and the “apparent Kd (screen)” value was 1.4 nM.

B45: E33W (designed binder)
chain: B1 chain with K1M, E33W
For B45, the “apparent Kd (screen)” value was 0.593 nM.

B46: A106H (designed binder)
chain: B1 chain with K1M, A106H
With B46 the “apparent Kd (screen)” value was 0.718 nM.

B47: L82Y (designed binder)
chain: B1 chain with K1M, L82Y
With B47 the “apparent Kd (screen)” value was 0.718 nM.

B48: R97D (designed binder)
chain: B1 chain with K1M, R97D
In the case of B48, the “apparent Kd (screen)” value is reported as 0.593 nM.

B49: A42I (designed binder)
chain: B1 chain with K1M, A42I
B49 was tested, and the “apparent Kd (screen)” value was 0.593 nM.

B50: E25R (designed binder)
chain: B1 chain with K1M, E25R
For B50, the “apparent Kd (screen)” value was 0.49 nM.

B51: V60I (designed binder)
chain: B1 chain with K1M, V60I
In the case of B51, the “apparent Kd (screen)” value is reported as 0.653 nM.

B52: P79C (designed binder)
chain: B1 chain with K1M, P79C
With B52 the “apparent Kd (screen)” value was 0.718 nM.

B53: E10N (designed binder)
chain: B1 chain with K1M, E10N
With B53 the “apparent Kd (screen)” value was 7.78 nM.

B54: E44S (designed binder)
chain: B1 chain with K1M, E44S
In the case of B54, the “apparent Kd (screen)” value is reported as 13.8 nM.

B55: A87G (designed binder)
chain: B1 chain with K1M, A87G
B55 was tested, and the “apparent Kd (screen)” value was 0.869 nM.

B56: L96A (designed binder)
chain: B1 chain with K1M, L96A
In the case of B56, the “apparent Kd (screen)” value is reported as 2.73 nM.

B57: L52D (designed binder)
chain: B1 chain with K1M, L52D
For B57, the “apparent Kd (screen)” value was 24.4 nM.

B58: F31S (designed binder)
chain: B1 chain with K1M, F31S
For B58, the “apparent Kd (screen)” value was 0.956 nM.

B59: E67N (designed binder)
chain: B1 chain with K1M, E67N
With B59 the “apparent Kd (screen)” value was 1.4 nM.
